The source of these data is patent publication US20220125947A1 (published 2022).

T1: T cell receptor (TCR) Vγ9 (TRGV9) (human, UniProt Q99603 21-122)
T1 sequence (looked up): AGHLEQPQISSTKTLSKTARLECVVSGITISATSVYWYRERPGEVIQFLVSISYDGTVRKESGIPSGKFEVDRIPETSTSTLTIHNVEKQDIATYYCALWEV

T2: T cell receptor (TCR) Vγ9 (TRGV9) (human, UniProt Q99603 21-122)
T2 chain (looked up): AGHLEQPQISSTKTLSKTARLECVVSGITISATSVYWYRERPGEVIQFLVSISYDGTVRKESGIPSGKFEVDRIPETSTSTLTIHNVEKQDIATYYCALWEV

B1: VG9B54 (antibody, human IgG1, kappa, V domains shown)
VH: EVQLVESGGGLVKPGGSLRLSCAASGFAFSSYSLTWVRQAPGKGLEWVSSISSSSSYIFYADSVKGRFTISRDNAKNSLYLQMNSLRAEDTAVYYCATDGELGPFDYWGQGTTVTVSS
VL: EIVMTQSPGTLSLSPGERATLSCRASQSVSSSYLAWFQQKPGQAPRRLIYGASSRATGIPDRFSGSGSGTDFTLTISRLEPEDFAVYYCQQYGRSPLTFGGGTKVEIKR
B2: VG9B133 (antibody, human IgG1, kappa, V domains shown)
VH: EVQLVESGGGLVKPGGSLRLSCAAAGFTFSNYDMNWVRQVPGKGLEWVSSISSSSSYIYYADSVKGRFTISRDNAKNSLYLQMNTLRAEDTAVYYCARDLGITGTTMDYYYGMDVWGQGTMVTVSS
VL: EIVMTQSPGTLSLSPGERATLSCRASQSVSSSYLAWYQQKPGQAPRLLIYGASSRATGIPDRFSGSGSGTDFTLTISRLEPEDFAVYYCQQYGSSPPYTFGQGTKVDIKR
B3: VG9B428 (antibody, human IgG1, kappa)
heavy: not shown
light: EIVMTQSPSSVSASVGDRVTITCRASQGINSWLAWYQQKPGNAPKLLIYAASSLQSGVPSRFSGIGSGTDFIFTISSLQPEDFASYYCQQANSFPWTFGQGTKVEIKRTVAAPSVFIFPPSDEQLKSGTASVVCLLNNFYPREAKVQWKVDNALQSGNSQESVTEQDSKDSTYSLSSTLTLSKADYEKHKVYACEVTHQGLSSPVTKSFNRGEC
B4: VG9B463 (antibody, human IgG1, lambda, V domains shown)
VH: EVQLVESGGGLVKPGGSLRLSCSASGFTFSNYDMNWVRQAPGKGLEWVSSISSSSSYIYYADSVKGRFTISRDNAKNSLYLQMNSLRAEDTAVYHCARDVGVTTDYYYYGMDVWGQGTTVTVSS
VL: QPVLTQSSSASGTPGQRVTISCSGSSSNIGSNTVNWYQQFPGTAPKLLIYTNTQRPSGVPDRFSGSKSGTLVSLAISGLQSEDEADYYCAAWDDSLNAWVFGGGTKLTVLG
B5: VG9B430 (antibody, human IgG1, kappa, V domains shown)
VH: EVQLLESGGGLVKPGGSLRLSCSASGFTFSSYDMNWVRQAPGKGLEWVSSISSSSSYIYYADSVKGRFTISRDNAKNSLYLQMNSLRAEDTAVYHCARDVGVTTDYYYYGMDVWGQGTMVTVSS
VL: EIVLTQSPGTLSLSPGDRATLSCRASQSVASSYLAWYQQKPGQSPRLLIYGASSRATGIPDRFSGSGSGTDFTLTISRLEPEDFAVYYCQQYGSSPPYTFGQGTKLEIKR
B6: VG9B98 (antibody, human IgG1, kappa, V domains shown)
VH: EVQLVQSGGDLVKSGGSLRLSCAASGFTFSSYSMYWVRQAPGKGLEWVSSIGSSSTYIFYADSVKGRFTISRDNAMTSLYLQMNRLGAEDSAVYYCARDGELGPFEYWGQGTLVTVSS
VL: EIVLTQSPGTLSLSPGERATLSCRASQSVSTSYLAWFQQKPGQAPRLLIFGTSSRATGIPDRFSGSGSGTDFTLTISRLEPEDFAVYHCLQYGRSPLTFGGGTKVDIKR
B7: VG9B104 (antibody, human IgG1, kappa, V domains shown)
VH: EVQLVESGGGLVKPGGSLRLSCAASGFTFSVYSMNWVRQAPGKGLEWVSSIGSSSSYIFYADSVKGRFTISRDNAKNSLYLQMNSLRAEDTAVYYCGRDHDYGGLDYWGQGTLVTVSS
VL: EIVLTQSPGTLSLSPGERATLSCRASQSVSSSYLAWYQQKPGQAPRLLIYGPSNRATDIPDRFSGTGSGTDFTLTISRLEPEDFAVYYCQQYGRSPLTFGGGTKVEIKR
B8: VG9B469 (antibody, human IgG1, kappa, V domains shown)
VH: EVQLVESGGGLVKPGGSLRLSCAASGFTFSHYDMNWVRQAPGKGLEWVSSISSSSSYIFYADSVKGRFTISRDNAKNSLLLQMNSLRAEDTAVYHCARDRGVGDTSDYYSFGLDVWGQGTMVTVSS
VL: DIVMTQSPGTLSLSPGERATLSCRASQNVSSTYLAWYQQKPGQAPRLLIYGACSRATGIPDRFSGSGSGTDFTLTISRLEPEDYAVYYCQQYGSSPPYTFGRGTKLEIKR
B9: VG9B73 (antibody, human IgG1, kappa, V domains shown)
VH: EVQLVQSGGGLVKPGGSLRLSCAASGFTFSNYDMNWVRQAPGKGLEWVSSISSSSSYIYYADSVKGRFTISRDNARNSLFLQMSSLRAEDTAVYYCAREIGVTGTTYYQDYGMDVWGQGTTVTVSS
VL: EIVMTQSPGTLSLSPGERATLSCRASQSFSSNYLAWYQQKPGQAPRLLIYGASSRATGIPDRFSGSGSGTDFTLTISRLEPEDFALYYCQQYGSSPPFTFGQGTKVEIKR
B10: VG9B69 (antibody, human IgG1, kappa, V domains shown)
VH: EVQLVESGGGLVKPGGSLRLSCAASGFTFSSYDINWVRQAPGKGLEWVSSITSSSYYIYYADSVKGRFTISRDNAKNSLYLQMNSLRAEDTAVYYCARDLGVRGVDYYYYGLDVWGQGTMVTVSS
VL: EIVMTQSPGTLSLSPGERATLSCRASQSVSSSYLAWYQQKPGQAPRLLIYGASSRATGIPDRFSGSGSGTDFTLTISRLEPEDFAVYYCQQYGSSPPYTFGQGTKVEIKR
For CD25+ (Vg9+ cells), flow staining in this document: test concentration or dose not given here.
For CD71+ (Vg9+ cells), flow staining in this document: test concentration or dose not given here.
For Granzyme B, Luminex (supernatant) in this document: unit not given here.
For IL6, Luminex (supernatant) in this document: unit not given here.
For TNFα, Luminex (supernatant) in this document: unit not given here.

The first assay has as its target T1, T cell receptor (TCR) Vγ9 (TRGV9). In words: cell-based or functional assay.
Regarding B1, the “CD25+ (Vg9+ cells), flow staining” value came to 32.4%; the “CD71+ (Vg9+ cells), flow staining” value worked out at 93.3%; the “Granzyme B, Luminex (supernatant)” value was 3100; the “IFNγ, Luminex (supernatant)” value turned out to be 1600. Moreover, the “IL6, Luminex (supernatant)” value turned out to be 761; the “TNFα, Luminex (supernatant)” value worked out at 6100; the “Vg9 T cell %, flow staining” value turned out to be 10.5%.

The target of the next assay is T2, T cell receptor (TCR) Vγ9 (TRGV9). The assay can be described thus: cell-based or functional assay.
For the molecule B2, the “CD25+ (Vg9+ cells), flow staining” value turned out to be 21.8%; the “CD71+ (Vg9+ cells), flow staining” value stood at 91.4%; the “Granzyme B, Luminex (supernatant)” value was found to be 3480; the “IFNγ, Luminex (supernatant)” value was 1170. Further, the “IL6, Luminex (supernatant)” value stood at 478; the “TNFα, Luminex (supernatant)” value stood at 123; the “Vg9 T cell %, flow staining” value is 5.8%.
Take B3: the “CD25+ (Vg9+ cells), flow staining” value came to 37%; the “CD71+ (Vg9+ cells), flow staining” value was determined as 98.1%; the “Granzyme B, Luminex (supernatant)” value was determined as 4120; the “IFNγ, Luminex (supernatant)” value came to 2000. In addition, the “IL6, Luminex (supernatant)” value was determined as 613; the “TNFα, Luminex (supernatant)” value amounted to 390; the “Vg9 T cell %, flow staining” value was found to be 5%.
B4: the “CD25+ (Vg9+ cells), flow staining” value is 26%; the “CD71+ (Vg9+ cells), flow staining” value was 87.4%; the “Granzyme B, Luminex (supernatant)” value stood at 965; the “IFNγ, Luminex (supernatant)” value was 364. The “IL6, Luminex (supernatant)” value was 100; the “TNFα, Luminex (supernatant)” value amounted to 2110; the “Vg9 T cell %, flow staining” value is 4.1%.
Turning to B5, the “CD25+ (Vg9+ cells), flow staining” value turned out to be 37.5%; the “CD71+ (Vg9+ cells), flow staining” value was determined as 96.2%; the “Granzyme B, Luminex (supernatant)” value was 2520; the “IFNγ, Luminex (supernatant)” value is 1490. The “IL6, Luminex (supernatant)” value turned out to be 372; the “TNFα, Luminex (supernatant)” value was 125; the “Vg9 T cell %, flow staining” value came out at 10.7%.
On to B6, for which the “CD25+ (Vg9+ cells), flow staining” value was 29.4%; the “CD71+ (Vg9+ cells), flow staining” value turned out to be 90.5%; the “Granzyme B, Luminex (supernatant)” value turned out to be 1420; the “IFNγ, Luminex (supernatant)” value came to 305. The “IL6, Luminex (supernatant)” value stood at 294; the “TNFα, Luminex (supernatant)” value amounted to 2010; the “Vg9 T cell %, flow staining” value turned out to be 7.2%.
Regarding B7, the “CD25+ (Vg9+ cells), flow staining” value is 41.4%; the “CD71+ (Vg9+ cells), flow staining” value was 95.2%; the “Granzyme B, Luminex (supernatant)” value was 5290; the “IFNγ, Luminex (supernatant)” value turned out to be 2440. Also, the “IL6, Luminex (supernatant)” value was found to be 1090; the “TNFα, Luminex (supernatant)” value is 4130; the “Vg9 T cell %, flow staining” value came out at 5.1%.
As for B8, the “CD25+ (Vg9+ cells), flow staining” value is 29.9%; the “CD71+ (Vg9+ cells), flow staining” value worked out at 98.5%; the “Granzyme B, Luminex (supernatant)” value came out at 3700; the “IFNγ, Luminex (supernatant)” value was 1580. In addition, the “IL6, Luminex (supernatant)” value amounted to 440; the “TNFα, Luminex (supernatant)” value turned out to be 173; the “Vg9 T cell %, flow staining” value came out at 7.8%.
With B9, the “CD25+ (Vg9+ cells), flow staining” value is 30.6%; the “CD71+ (Vg9+ cells), flow staining” value came out at 94.1%; the “Granzyme B, Luminex (supernatant)” value worked out at 3370; the “IFNγ, Luminex (supernatant)” value was 1050. Further, the “IL6, Luminex (supernatant)” value worked out at 359; the “TNFα, Luminex (supernatant)” value came to 136; the “Vg9 T cell %, flow staining” value was found to be 13.8%.
Regarding B10, the “CD25+ (Vg9+ cells), flow staining” value worked out at 40.4%; the “CD71+ (Vg9+ cells), flow staining” value amounted to 97.7%; the “Granzyme B, Luminex (supernatant)” value stood at 3240; the “IFNγ, Luminex (supernatant)” value was found to be 2070. Also, the “IL6, Luminex (supernatant)” value was 591; the “TNFα, Luminex (supernatant)” value is 1100; the “Vg9 T cell %, flow staining” value stood at 8.8%.
